Results from patent publication US6800606B1, “Monomeric analogues of human insulin” (Shanghai Institute of Biochemistry, priority 1999, dated 2004).

Assay: Determination of structural forms by Superdex G-75 column elution
Format: physicochemical
Settings: for Peak profile / Retention Time: Superdex G-75 column (HR 10/30), phosphate buffered saline pH 7.4, flow rate 0.4 ml/min, sample 1.2 mg/ml; for Structural form (monomeric or polymeric): concluded from retention time and peak profile versus positive control [B28Lys, B29Pro] human insulin
Description: […] A preparation of each analogue is passed through Superdex G-75 column (HR 10/30). HI and [B28Lys, B29Pro] insulin (Lispro) are used as negative and positive controls respectively. Phosphate buffered saline pH 7.4 is used as an elution buffer and the flow rate fixed at 0.4 ml/min. The concentration of the sample preparation is 1.2 mg/ml.

Substance | Peak profile | Retention Time [min] | Structural form (monomeric or polymeric)
[B12Thr]Hl: insulin analogue in which the 12th amino acid of the B-chain of human insulin (Val) is substituted by Thr | Symmetrical | 39.4 | monomeric
[B16Ala]Hl: human insulin analogue with replacement of Tyr by Ala in position B16 | Symmetrical | 38.3 | monomeric
[B26Ala]Hl: human insulin analogue with replacement of Tyr by Ala in position B26 | Symmetrical | 38.9 | monomeric
Hl: human insulin, used as negative control [reference compound] | Unsymmetrical | 36.4 | –
[B28Lys, B29Pro]Hl: commercial monomeric insulin with inversion of amino acids 28 and 29 of the B chain of human insulin; positive control [reference compound] | Symmetrical | 39.4 | –
